T1: IL-18 receptor (IL-18Rα/IL-18Rβ) on human PBMCs (human, UniProt Q13478 19-541; O95256 20-599)
T1 sequence (looked up) 1: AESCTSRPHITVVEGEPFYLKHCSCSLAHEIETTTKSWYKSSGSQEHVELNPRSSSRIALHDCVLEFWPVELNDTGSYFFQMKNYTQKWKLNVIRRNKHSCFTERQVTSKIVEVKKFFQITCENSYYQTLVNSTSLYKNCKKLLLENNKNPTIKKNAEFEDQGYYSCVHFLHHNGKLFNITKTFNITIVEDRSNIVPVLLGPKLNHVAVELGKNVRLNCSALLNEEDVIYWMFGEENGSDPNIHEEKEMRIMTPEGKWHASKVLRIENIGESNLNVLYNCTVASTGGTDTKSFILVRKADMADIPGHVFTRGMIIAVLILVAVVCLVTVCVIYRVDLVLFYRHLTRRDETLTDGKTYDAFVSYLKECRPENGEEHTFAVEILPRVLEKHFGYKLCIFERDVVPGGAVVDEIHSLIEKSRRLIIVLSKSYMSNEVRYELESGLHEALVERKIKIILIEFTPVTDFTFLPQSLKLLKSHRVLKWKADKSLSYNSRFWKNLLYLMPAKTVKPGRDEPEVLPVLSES
T1 sequence (looked up) 2: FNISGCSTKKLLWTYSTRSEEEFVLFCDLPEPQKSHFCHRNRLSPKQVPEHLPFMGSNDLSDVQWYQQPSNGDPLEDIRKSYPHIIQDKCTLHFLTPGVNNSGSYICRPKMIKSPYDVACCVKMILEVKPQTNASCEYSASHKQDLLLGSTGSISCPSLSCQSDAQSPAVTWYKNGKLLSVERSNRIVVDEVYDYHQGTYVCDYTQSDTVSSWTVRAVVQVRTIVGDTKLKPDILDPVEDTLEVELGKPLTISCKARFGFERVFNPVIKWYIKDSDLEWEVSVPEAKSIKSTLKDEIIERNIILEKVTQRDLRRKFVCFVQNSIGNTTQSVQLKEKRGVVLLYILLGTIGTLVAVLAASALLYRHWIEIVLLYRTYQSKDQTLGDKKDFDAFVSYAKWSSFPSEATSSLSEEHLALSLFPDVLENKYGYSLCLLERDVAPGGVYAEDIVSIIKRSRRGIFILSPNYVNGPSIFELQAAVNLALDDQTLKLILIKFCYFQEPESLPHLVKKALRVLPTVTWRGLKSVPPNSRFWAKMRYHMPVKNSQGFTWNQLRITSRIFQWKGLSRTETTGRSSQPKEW

T2: IL-18 receptor (IL-18Rα and IL-18Rβ) on HEK-Blue IL-18 cells (UniProt Q13478 19-541; O95256 20-599, limits assumed)
T2 sequence (looked up) 1: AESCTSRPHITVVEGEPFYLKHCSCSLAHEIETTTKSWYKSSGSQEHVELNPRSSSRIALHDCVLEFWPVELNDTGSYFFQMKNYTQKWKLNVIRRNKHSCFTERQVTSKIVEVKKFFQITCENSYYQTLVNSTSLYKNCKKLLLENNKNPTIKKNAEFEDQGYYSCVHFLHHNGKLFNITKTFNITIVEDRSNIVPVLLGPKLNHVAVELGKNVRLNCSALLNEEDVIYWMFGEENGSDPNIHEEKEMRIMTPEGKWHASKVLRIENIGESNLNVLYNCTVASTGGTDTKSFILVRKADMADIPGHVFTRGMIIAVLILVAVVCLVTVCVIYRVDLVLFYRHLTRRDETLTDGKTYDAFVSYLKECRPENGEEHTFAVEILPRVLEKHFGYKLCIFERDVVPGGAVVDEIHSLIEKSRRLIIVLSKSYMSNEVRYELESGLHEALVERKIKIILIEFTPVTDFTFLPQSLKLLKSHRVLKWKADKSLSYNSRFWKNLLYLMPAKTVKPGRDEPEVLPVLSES
T2 sequence (looked up) 2: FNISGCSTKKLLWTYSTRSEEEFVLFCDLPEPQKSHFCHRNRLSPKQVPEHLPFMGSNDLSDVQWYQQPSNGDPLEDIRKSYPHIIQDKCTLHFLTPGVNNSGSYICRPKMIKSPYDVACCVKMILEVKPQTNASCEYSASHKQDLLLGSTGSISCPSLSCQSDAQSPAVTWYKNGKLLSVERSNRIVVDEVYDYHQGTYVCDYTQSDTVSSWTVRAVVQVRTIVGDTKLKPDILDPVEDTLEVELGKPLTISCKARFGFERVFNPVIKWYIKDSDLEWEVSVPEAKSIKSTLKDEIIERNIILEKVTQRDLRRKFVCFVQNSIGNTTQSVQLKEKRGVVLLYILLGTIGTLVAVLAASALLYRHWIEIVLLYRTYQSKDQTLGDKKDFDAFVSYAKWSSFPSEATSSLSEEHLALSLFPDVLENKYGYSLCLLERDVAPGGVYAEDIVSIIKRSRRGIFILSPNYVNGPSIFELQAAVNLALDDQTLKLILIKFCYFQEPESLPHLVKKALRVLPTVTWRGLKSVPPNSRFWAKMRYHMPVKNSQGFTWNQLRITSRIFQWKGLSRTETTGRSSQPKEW


Legend:
Assay in all cases: cell-based or functional assay
[1] = biological target: T1, IL-18 receptor (IL-18Rα/IL-18Rβ) on …
[2] = biological target: T2, IL-18 receptor (IL-18Rα and IL-18Rβ) on …
[3] = biological target: T2, IL-18 receptor (IL-18Rα and IL-18Rβ) on …; remark: listed apart in the source

| Calculated maximum induction of IFN-γ after 24 hours, donor 1 [1] | Calculated maximum induction of IFN-γ after 24 hours, donor 2 [1] | Calculated maximum induction of IFN-γ after 24 hours, donor 3 [1] | Calculated maximum induction of IFN-γ after 24 hours, donor 4 [1] | Calculated maximum induction of IFN-γ after 24 hours, donor 5 [1] | Calculated maximum induction of IFN-γ after 24 hours, donor 6 [1] | HEK-Blue: Abs 405 at 100 nM [2] | HEK-Blue: Fold over background [2] | EC50 (read off the curve) [3] | Binder |
| --- | --- | --- | --- | --- | --- | --- | --- | --- | --- |
| 16000 | 1700 | 22000 | 17000 | 15000 | 3000 | 1.34 absorbance | 7.2 fold |  | DGL346 (bispecific antibody) chain 1: EVQLVESGGGLIQPGGSLRLSCAASGSISSRDTMGWYRQAPGKGREMVSVISSSGNTNYADSVLGRFTISRDNAKNTVYLQMNALRAEDTAVYKCYAHRTYGVDYWGQGTLVTVSSGGGSQVQLVESGGGLVQPGGSLRLSCAASGRTFSSYTMGWFRQAPGKGREFVSAISWSAGRTYYADSVKGRFTISRDNAKNTVYLQMNALRAEDTAVYYCAAEEAPDWAPIDCSGYGCLSLYDYWGQGTLVTVSDKTHTCPPCPAPEAAGAPSVFLFPPKPKDTLYITREPEVTCVVVDVSHEDPEVKFNWYVDGVEVHNAKTKPREEQYNSTYRVVSVLTVLHQDWLNGKEYKCKVSNKALPAPIEKTISKAKGQPREPQVCTLPPSRDELTKNQVSLSCAVKGFYPSDIAVEWESNGQPENNYKTTPPVLDSDGSFFLVSKLTVDKSRWQQGNVFSCSVMHEALHNHYTQKSLSLSPG chain 2: DKTHTCPPCPAPEAAGAPSVFLFPPKPKDTLYITREPEVTCVVVDVSHEDPEVKFNWYVDGVEVHNAKTKPREEQYNSTYRVVSVLTVLHQDWLNGKEYKCKVSNKALPAPIEKTISKAKGQPREPQVYTLPPCRDELTKNQVSLWCLVKGFYPSDIAVEWESNGQPENNYKTTPPVLDSDGSFFLYSKLTVDKSRWQQGNVFSCSVMHEALHNHYTQKSLSLSPG |
| 16000 | 1300 | 22000 | 19000 | 15000 | 2400 | 1.87 absorbance | 10.1 fold | ~1 nM | DGL620 (bispecific antibody) chain 1: EVQLLESGGGLVQPGGSLRLSCAASGRTFSKHAMGWFRQAPGKGLEFVSAIDWSGGSTYYADSVKGRFTISRDNSKNTVYLQMNSLRAEDTAVYYCAADSYTDYAQLWLPELESEYDYWGQGTLVTVSSCPPCPAPEAAGAPSVFLFPPKPKDTLYITREPEVTCVVVDVSHEDPEVKFNWYVDGVEVHNAKTKPREEQYNSTYRVVSVLTVLHQDWLNGKEYKCKVSNKALPAPIEKTISKAKGQPREPQVCTLPPSRDELTKNQVSLSCAVKGFYPSDIAVEWESNGQPENNYKTTPPVLDSDGSFFLVSKLTVDKSRWQQGNVFSCSVMHEALHNHYTQKSLSLSPG chain 2: QLQLLESGGGLVQAGGSLRLSCAASRSITFSHNVMGWYRQAPGKGRELVSSIGSGGSTNYVDSVKGRFTISRDNSKKTLYLQMNSLRAEDTAVYYCGVVVGVYRGSLGQGTLVTVSSCPPCPAPEAAGAPSVFLFPPKPKDTLYITREPEVTCVVVDVSHEDPEVKFNWYVDGVEVHNAKTKPREEQYNSTYRVVSVLTVLHQDWLNGKEYKCKVSNKALPAPIEKTISKAKGQPREPQVYTLPPCRDELTKNQVSLWCLVKGFYPSDIAVEWESNGQPENNYKTTPPVLDSDGSFFLYSKLTVDKSRWQQGNVFSCSVMHEALHNHYTQKSLSLSPG |
| 13000 | 620 | 17000 | 9300 | 1500 | 1300 | 0.9 absorbance | 4.9 fold |  | DGL336 (bispecific antibody, V domains shown) V domain 1: EVQLLESGGGLVQPGGSLRLSCAASGRTFSKHAMGWFRQAPGKGLEFVSAIDWSGGSTYYADSVKGRFTISRDNSKNTVYLQMNSLRAEDTAVYYCAADSYTDYAQLWLPELESEYDYWGQGTLVTVSS V domain 2: EVQLVESGGGLIQPGGSLRLSCAASGSISSRDTMGWYRQAPGKGREMVSVISSSGNTNYADSVLGRFTISRDNAKNTVYLQMNALRAEDTAVYKCYAHRTYGVDYWGQGTLVTVSS |

Source: patent US20250179197A1 (DIAGONAL THERAPEUTICS, published 2025)
